Source: patent US20230242673A1 (published 2023)

Experiments:
[1] = target: T1, original PCSK9 (PCSK9 (human) recombinant protein, Abnova Cat No: H00255738-P01) (UniProt Q8NBP7 31-692); experiment: ELISA; 2nd experiment
[2] = target: T1, original PCSK9 (PCSK9 (human) …); experiment: ELISA; 1st experiment
[3] = target: T1, original PCSK9 (PCSK9 (human) …); experiment: ELISA; mean of two experiments, ±0.028
[4] = target: T1, original PCSK9 (PCSK9 (human) …); experiment: ELISA; mean of two experiments, ±0.000
[5] = target: T1, original PCSK9 (PCSK9 (human) …); experiment: ELISA; mean of two experiments, ±0.014

T1 sequence (Q8NBP7 other isoform, or with tags, fused parts or gaps): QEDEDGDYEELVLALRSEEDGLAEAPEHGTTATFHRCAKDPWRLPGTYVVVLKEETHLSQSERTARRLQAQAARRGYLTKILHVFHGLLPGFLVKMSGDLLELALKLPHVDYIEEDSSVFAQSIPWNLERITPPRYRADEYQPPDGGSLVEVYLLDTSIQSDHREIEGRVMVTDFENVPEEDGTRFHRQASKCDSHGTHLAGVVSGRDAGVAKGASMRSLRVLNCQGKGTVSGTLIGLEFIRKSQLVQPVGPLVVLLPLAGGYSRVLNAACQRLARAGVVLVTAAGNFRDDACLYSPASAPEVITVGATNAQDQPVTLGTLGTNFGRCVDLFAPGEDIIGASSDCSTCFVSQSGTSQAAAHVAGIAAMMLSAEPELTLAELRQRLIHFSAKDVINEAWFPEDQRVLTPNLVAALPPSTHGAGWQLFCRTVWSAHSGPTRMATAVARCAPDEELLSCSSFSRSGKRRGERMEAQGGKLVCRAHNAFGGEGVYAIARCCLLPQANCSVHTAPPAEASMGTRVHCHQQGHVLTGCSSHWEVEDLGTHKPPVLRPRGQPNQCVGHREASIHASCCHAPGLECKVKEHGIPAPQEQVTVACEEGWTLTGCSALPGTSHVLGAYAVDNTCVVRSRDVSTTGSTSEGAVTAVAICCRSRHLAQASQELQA

EC50 [1] | EC50 [2] | EC50 [3] | EC50 [4] | EC50 [5] | Binder
0.4 µg/mL | 0.36 µg/mL | 0.38 µg/mL | – | – | ch7D1 IgG (antibody, V domains shown) VH: EVKLVESGAELVRSGASVKLSCTASGFNIKDYYMHWVKQRPEQGLEWIGYIDPENGDTEYAPKFQGKATMTADTSSNTAYLQLSSLTSEDTAVYYCRSSPFTYWGQGTLVTVSA VL: not shown
0.13 µg/mL | 0.13 µg/mL | – | 0.13 µg/mL | – | hz7D1.11 IgG (antibody, V domains shown) VH: QVQLVQSGAEVKKPGASVKVSCKASGFNIKDYYMHWVRQAPGQGLEWIGYIDPENGDTEYAPKFQGRATMTADTSISTAYMELSRLRSDDTAVYYCRSSPFTYWGQGTLVTVSS VL: DVVMTQSPLSLPVTLGQPASISCKSSQSLLDSDGKTYLNWLQQRPGQSPRRLIYLVSKLDSGVPDRFSGSGSGTDFTLKISRVEAEDVGVYYCWQGTHFPQTFGGGTKVEIKR
0.17 µg/mL | 0.19 µg/mL | – | – | 0.18 µg/mL | hz7D1.22 IgG (antibody, V domains shown) VH: QVQLVQSGAEVKKPGASVKVSCKASGYTFKDYYMHWVRQAPGQGLEWMGYIDPENGDTEYAPKFQGRVTMTADTSISTAYMELSRLRSDDTAVYYCRSSPFTYWGQGTLVTVSS VL: DVVMTQSPLSLPVTLGQPASISCKSSQSLLDSDGKTYLNWFQQRPGQSPRRLIYLVSKLDSGVPDRFSGSGSGTDFTLKISRVEAEDVGVYYCWQGTHFPQTFGGGTKVEIKR
